Columns and labels:
Experiment in all cases: ELISA on plates coated with the antigen; control serum
[1] = biological target: native α-lactalbumin
[2] = biological target: α-lactalbumin stabilized denatured isomer "a"
[3] = biological target: α-lactalbumin stabilized denatured isomer "c"
[4] = biological target: α-lactalbumin stabilized denatured isomer "d"

Question: Which results are given for “normal mouse serum (control) (polyclonal serum or antibody)”?
Answer: O.D. [1]: 0.06 O.D.; O.D. [2]: 0.06 O.D.; O.D. [3]: 0.056 O.D.; O.D. [4]: 0.05 O.D.
